# Results taken from patent publication US20250297287A1.
# Tests used:
# [1] = biological target: albumin (Sigma A9731) (human) (UniProt P02768); assay: SPR (C1 chip), FcRn-biotin on surface, albumin injected, pH 5.8, 25 C
# human IgG3 (human) [2] = biological target: human IgG3 (human) (UniProt P01860); assay: SPR (CM5 chip), IgG immobilised, FcRn in solution, pH 5.8, 25 C
# human IgG4 (human) [3] = assay: as above
# human IgG1 (human) = assay: SPR (C1 chip), FcRn-biotin on surface, IgG injected, pH 5.8; estimated from limited surface saturation
# human IgG2 (human) = assay: as above
# Chain of human IgG2 (human) (Fc, as listed by the source limits assumed): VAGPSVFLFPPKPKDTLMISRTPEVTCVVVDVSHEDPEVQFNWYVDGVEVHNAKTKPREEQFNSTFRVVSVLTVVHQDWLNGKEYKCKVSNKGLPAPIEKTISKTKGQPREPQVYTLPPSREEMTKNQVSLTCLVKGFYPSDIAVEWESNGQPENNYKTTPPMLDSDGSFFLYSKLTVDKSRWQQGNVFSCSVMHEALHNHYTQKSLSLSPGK
# human IgG3 (human) [4] = biological target: human IgG3 (human) (UniProt P01860); assay: as above
# human IgG4 (human) [5] = assay: as above
# [6] = biological target: albumin (Sigma A9731) (human) (UniProt P02768); assay: SPR (CM5 chip), albumin immobilised, FcRn in solution, pH 5.8, 25 C
# Chain of human IgG3 (human) (P01860 other isoform, or with tags, fused parts or gaps): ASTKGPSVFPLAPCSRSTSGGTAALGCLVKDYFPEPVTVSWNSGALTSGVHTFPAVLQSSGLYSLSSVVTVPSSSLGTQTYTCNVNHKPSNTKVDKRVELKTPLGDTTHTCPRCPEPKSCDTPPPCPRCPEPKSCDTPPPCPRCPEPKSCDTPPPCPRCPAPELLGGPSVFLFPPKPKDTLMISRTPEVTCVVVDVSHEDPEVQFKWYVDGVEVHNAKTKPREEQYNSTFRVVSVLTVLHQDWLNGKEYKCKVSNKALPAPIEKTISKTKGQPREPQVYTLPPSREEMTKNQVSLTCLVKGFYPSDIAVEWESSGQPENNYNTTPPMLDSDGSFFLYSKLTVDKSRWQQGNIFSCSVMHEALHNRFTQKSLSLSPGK
Kd [1] [nM],Kd (human IgG3 (human) [2]) [nM],Kd (human IgG4 (human) [3]) [nM],Kd (human IgG1 (human)) [nM],Kd (human IgG2 (human)) [nM],Kd (human IgG3 (human) [4]) [nM],Kd (human IgG4 (human) [5]) [nM],Kd [6] [nM],Substance
1900,210,239,5200,6600,4200,12600,480,FcRn M118I (extracellular domain with beta2 microglobulin) (from UniProt P61769 21-119) (receptor)
1700,–,–,–,–,–,–,440,FcRn W131R (extracellular domain with beta2 microglobulin) (from UniProt P61769 21-119) (receptor)
–,–,–,–,–,–,–,960,FcRn E133K (extracellular domain with beta2 microglobulin) (from UniProt P61769 21-119) (receptor)
